The target in one data set is T1, Tu-CAS (Tetranychus urticae, UniProt T1KF23).
T1 construct: gene 107363798; tag removal not mentioned; PLP-dependent, predicted cytosolic
T1 sequence (T1KF23 1-320): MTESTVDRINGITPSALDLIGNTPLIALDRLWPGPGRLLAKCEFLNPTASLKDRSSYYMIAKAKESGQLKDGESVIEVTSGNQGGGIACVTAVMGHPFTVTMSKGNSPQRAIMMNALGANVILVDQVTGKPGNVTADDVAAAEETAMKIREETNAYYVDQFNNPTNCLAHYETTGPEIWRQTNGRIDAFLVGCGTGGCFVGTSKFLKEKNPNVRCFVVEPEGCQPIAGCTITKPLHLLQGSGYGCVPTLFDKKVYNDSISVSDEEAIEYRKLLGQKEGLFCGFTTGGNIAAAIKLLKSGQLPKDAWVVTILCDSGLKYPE
The experiment in a line: cofactor dependence of enzymatic activity. It counts as biochemical. The conditions noted are these: 500 µM pyridoxal-5'-phosphate in assay; Schiff base lysine conserved by sequence.

Substrate in data set [1]: N[C@@H](CS)C(=O)O
The experiment in a line: purified protein. It counts as biochemical, Tetranychus urticae. To be noted: co-substrate sodium cyanide (standard 0.01 M stock), 0.2 M Tris pH 8.5, 37 °C, preincubated with 500 µM pyridoxal-5'-phosphate.

Substrate in data set [2]: CC(=O)OC[C@H](N)C(=O)O
In words: purified protein. The conditions noted are these: co-substrate sodium sulfide (standard 2 mM); preincubated with 500 µM pyridoxal-5'-phosphate; pH not given.

As for `Cc1ncc(COP(=O)(O)O)c(C=O)c1O` [pyridoxal-5′-phosphate], the “cofactor dependence of enzymatic activity” value at Tu-CAS is “Enzymatic activity was dependent on pyridoxal-5′-phosphate as a cofactor”.

B1: Tu-CAS (Tetranychus urticae) (protein)
chain: T1 sequence (T1KF23 1-320)
notes: tag removal not mentioned; PLP-dependent, predicted cytosolic
A word on the Km: it is the substrate concentration at which the rate is half of its maximum. The kcat/Km is the turnover number divided by the Michaelis constant. In the case of B1, the results for the Km in the data set “purified protein [1]” and in “purified protein [2]” were 312 µM and 3170 µM, respectively. In addition, the kcat/Km in the data set “purified protein [1]” worked out at 6840 M⁻¹ s⁻¹; in “purified protein [2]”, 203 M⁻¹ s⁻¹.

(Values after PMC4011162, “A gene horizontally transferred from bacteria protects arthropods from host plant cyanide poisoning” (eLife, 2014).)
